The test system of assay [1] is small clot embolic strokes in rabbits. The settings on record: previous studies; cited from earlier work.
Assay [2] shares this test system. As to the kind of experiment: rabbit small clot embolic stroke model (RSCEM), quantal analysis of behavior. The assay is classed as in vivo. The text has this: The invention used a rabbit small clot embolic stroke model (RSCEM) that reproduces many facets of human AIS including a well-defined clinical endpoint. The RSCEM utilizes administration of a suspension of small blood clots to induce strokes, and behavioral deficits that can be measured quantitatively. Moreover, the RSCEM is useful to conduct studies testing the effects of single drugs or drug combinations such as a neuroprotective agent (e.g., NXY-059) plus a thrombolytic (Tenecteplase, Alteplase, Desmoteplase and the like). Since it is likely that a drug combination will be used for patient management it is important to determine whether there are any interactions (positive or negative) between the compounds when administered following embolic strokes.
Methods: Male New Zealand white rabbits were anesthetized using halothane (5% induction, 2% maintenance by facemask), the bifurcation of the right carotid artery was exposed and the external carotid was ligated just distal to the bifurcation, where a catheter was inserted into the common carotid and secured with ligatures. The incision was closed around the catheter with the distal ends left accessible outside the neck; the catheter was filled with heparinized saline and plugged with an injection cap. Rabbits were allowed to recover from anesthesia for a minimum of 3 h until they awoke and behaved normally.
For the RSCEM, microclots were prepared from blood drawn from a donor rabbit and allowed to clot at 37° C. All rabbits in the study received injections of the same sized microclots. For embolization, clot particles were rapidly injected through the carotid catheter and both the syringe and catheter were flushed with 5 ml of normal saline. […]
Quantal Dose-Response Analysis: For the RSCEM, a quantal dose-response data analysis technique was used. […] The P50 values are then calculated. […] The data were analyzed using the t-test, which included the Bonferroni correction where appropriate. […]

“Also recorded” adds a separate entry of the source.

B1: Tenecteplase: thrombolytic agent supplied by Genentech as a lyophilized cake, the formulation used clinically (protein, UniProt P00750 36-562, looked up, variant T103N N117Q K296A H297A R298A R299A)
Tissue-type plasminogen …: SYQVICRDEKTQMIYQQHQSWLRPVLRSNRVEYCWCNSGRAQCHSVPVKSCSEPRCFNGGTCQQALYFSDFVCQCPEGFAGKCCEIDTRATCYEDQGISYRGNWSTAESGAECTNWQSSALAQKPYSGRRPDAIRLGLGNHNYCRNPDRDSKPWCYVFKAGKYSSEFCSTPACSEGNSDCYFGNGSAYRGTHSLTESGASCLPWNSMILIGKVYTAQNPSAQALGLGKHNYCRNPDGDAKPWCHVLKNRRLTWEYCDVPSCSTCGLRQYSQPQFRIKGGLFADIASHPWQAAIFAAAAASPGERFLCGGILISSCWILSAAHCFQERFPPHHLTVILGRTYRVVPGEEEQKFEVEKYIVHKEFDDDTYDNDIALLQLKSDSSRCAQESSVVRTVCLPPADLQLPDWTECELSGYGKHEALSPFYSERLKEAHVRLYPSSRCTSQHLLNRTVTDNMLCAGDTRSGGPQANLHDACQGDSGGPLVCLNDGRMTLVGIISWGLGCGQKDVPGVYTKVTNYLDWIRDNMRP
Turning to B1, the therapeutic window in assay [1] is 3 h. For the same molecule, the P50 in assay [2] (Tenecteplase 0.9 mg/kg IV bolus, 1 hour following embolization) stood at 2.76 ± 0.37 mg. Also, the “increase of P50 over control” value in assay [2] (Tenecteplase 0.9 mg/kg, 1 hour following embolization) is recorded as 130%. The “P50 compared to control” value in assay [2] (Tenecteplase 0.9 mg/kg, 6 hours following embolization) is “did not increase the P50 compared to control; also recorded: neither Tenecteplase, nor NXY-059, significantly (p>0.05) affect P50 values”.

(Values after patent US20070166299A1, “TREATMENT FOR EMBOLIC STROKE” (priority 2005, published 2007).)
